Measurements as given in PMC12304082.

Molecular target: MtrC_(DI,II,memb), lipid-anchored truncated MtrC comprised only of domains I and II (Shewanella oneidensis MR-1) (UniProt Q8EG34)

rate of reduction of 700 nM soluble OmcA by whole S. oneidensis ΔmtrC/omcA cells producing MtrC (DI,II)AB, against S. oneidensis MR-1 (fold lower rate): 4
Substance: soluble OmcA (from UniProt Q8EG33 1-735) (natural protein)
